From patent US11672767

T1: BMP2-PxSPCP NPs (UniProt P12643)
T1 sequence 1: CGGKGGKFKTGG
T1 sequence 2: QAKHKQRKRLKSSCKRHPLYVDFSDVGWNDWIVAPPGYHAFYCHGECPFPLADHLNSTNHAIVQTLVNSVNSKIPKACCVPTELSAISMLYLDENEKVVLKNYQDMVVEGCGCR

T2: BMP2-P5SPCP NPs (UniProt P12643)
T2 sequence 1: CGGKGGKFKTGG
T2 sequence 2: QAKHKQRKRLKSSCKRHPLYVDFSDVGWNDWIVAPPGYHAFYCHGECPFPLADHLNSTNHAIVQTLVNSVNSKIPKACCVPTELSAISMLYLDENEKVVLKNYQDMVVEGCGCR

T3: BMP2-PxSPCP NPs, P12643
T3 chain 1: CGGKGGKFKTGG
T3 chain 2: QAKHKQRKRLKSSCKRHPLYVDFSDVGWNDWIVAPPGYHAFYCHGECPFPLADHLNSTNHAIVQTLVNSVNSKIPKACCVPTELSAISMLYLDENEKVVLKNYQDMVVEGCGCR


Key:
BMP2-PxSPCP NPs = biological target: T1, BMP2-PxSPCP NPs
BMP2-P5SPCP NPs = biological target: T2, BMP2-P5SPCP NPs
BMP2-PxSPCP NPs, P12643 = biological target: T3, BMP2-PxSPCP NPs, P12643

| Molecule | release of BMP2 from NPs co-encapsulated with plasmin in LPELA hydrogel, measured by BMP2 ELISA (BMP2-PxSPCP NPs) | cumulative release of BMP2 from NPs co-encapsulated with plasmin in LPELA hydrogel, measured by BMP2 ELISA (BMP2-P5SPCP NPs) | osteogenic activity (peak RUNX2 expression) of hMSCs co-encapsulated with the NPs (BMP2-PxSPCP NPs, P12643) |
| --- | --- | --- | --- |
| plasmin | gradually released to the medium with incubation time at a rate faster than BMP2-PxSP NPs but slower than the free BMP2 | the cumulative release of BMP2 from the encapsulated BMP2-P5SPCP NPs was 60% after 21 days |  |
| plasmin secreted by the encapsulated cells (hMSCs) (protein) KVYLSECKTGNGKNYRGTMSKTKNGITCQKWSSTSPHRPRFSPATHPSEGLEENYCRNPDNDPQGPWCYTTDPEKRYDYCDILECEEECMHCSGENYDGKISKTMSGLECQAWDSQSPHAHGYIPSKFPNKNLKKNYCRNPDRELRPWCFTTDPNKRWELCDIPRCTTPPPSSGPTYQCLKGTGENYRGNVAVTVSGHTCQHWSAQTPHTHNRTPENFPCKNLDENYCRNPDGKRAPWCHTTNSQVRWEYCKIPSCDSSPVSTEQLAPTAPPELTPVVQDCYHGDGQSYRGTSSTTTTGKKCQSWSSMTPHRHQKTPENYPNAGLTMNYCRNPDADKGPWCFTTDPSVRWEYCNLKKCSGTEASVVAPPPVVLLPDVETPSEEDCMFGNGKGYRGKRATTVTGTPCQDWAAQEPHRHSIFTPETNPRAGLEKNYCRNPDGDVGGPWCYTTNPRKLYDYCDVPQCAAPSFDCGKPQVEPKKCPGRVVGGCVAHPHSWPWQVSLRTRFGMHFCGGTLISPEWVLTAAHCLEKSPRPSSYKVILGAHQEVNLEPHVQEIEVSRLFLEPTRKDIALLKLSSPAVITDKVIPACLPSPNYVVADRTECFITGWGETQGTFGAGLLKEAQLPVIENKVCNRYEFLNGRVQSTELCAGHLAGGTDSCQGDSGGPLVCFEKDKYILQGVTSWGLGCARPNKPGVYVRVSRFVTWIEGVMRNN |  |  | The BMP2-PxSPCP NP groups showed significantly higher osteogenic activity compared to non-cleavable BMP2-PxSP NPs |
